Source: US20180355050A1 (Ablynx, published 2018)

What was measured:
[1] = molecular target: T1, human CD40L expressed on CHO cells (human, UniProt P29965 1-261); test: cell-based or functional assay
T1 sequence: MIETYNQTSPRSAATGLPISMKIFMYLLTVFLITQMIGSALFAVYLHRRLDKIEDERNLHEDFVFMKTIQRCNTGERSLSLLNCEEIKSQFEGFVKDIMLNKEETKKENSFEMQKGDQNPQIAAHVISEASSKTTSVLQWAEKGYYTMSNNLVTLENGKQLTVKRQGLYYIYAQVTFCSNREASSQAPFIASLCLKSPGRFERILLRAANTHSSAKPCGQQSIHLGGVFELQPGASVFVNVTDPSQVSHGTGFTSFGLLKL

[2] = molecular target: T1, human CD40L expressed on CHO cells; test: cell-based or functional assay; remark: listed apart in the source
[3] = molecular target: T2, rat CD40L on transiently transfected HEK cells (rat, UniProt Q9Z2V2 1-260); test: FACS on HEK cells transiently transfected with rat CD40L
T2 construct: whole, on cells
T2 sequence (looked up): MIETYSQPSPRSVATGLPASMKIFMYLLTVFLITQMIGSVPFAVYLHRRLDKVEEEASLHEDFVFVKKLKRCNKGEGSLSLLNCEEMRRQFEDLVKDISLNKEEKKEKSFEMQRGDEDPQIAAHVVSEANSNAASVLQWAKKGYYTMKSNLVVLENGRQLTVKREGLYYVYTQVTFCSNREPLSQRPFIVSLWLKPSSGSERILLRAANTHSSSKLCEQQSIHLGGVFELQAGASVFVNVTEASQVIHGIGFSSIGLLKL
Experimental: Cross-reactivity to rat CD40L (UniProt accession numbers: Q9Z2V2 and Q9R254 (secondary)) was tested in FACS. Purified Nanobodies were analyzed on FACS for binding to rat CD40L. 2×10⁵ cells (transiently transfected rat CD40L HEK cells) were incubated with the purified Nanobodies in FACS buffer for 30 minutes at 4° C. Cells were washed 3×, re-suspended and incubated for 30 minutes at 4° C. Cells were washed again 3× and dead cells were stained with TOPRO3 (Molecular probes, T3605). Samples were analyzed on a FACSarray™ (BD Biosciences).

recombinant human CD40L [4] = molecular target: T3, recombinant human CD40L (human, UniProt P29965 108-261, limits assumed); test: FACS ligand competition, biotinylated human CD40L on cyno CD40 HEK cells
T3 construct: Bought soluble recombinant protein (R&D, HEK, 6420-CL/CF); also called hCD40L; human CD40L (HEK, R&D)
T3 sequence: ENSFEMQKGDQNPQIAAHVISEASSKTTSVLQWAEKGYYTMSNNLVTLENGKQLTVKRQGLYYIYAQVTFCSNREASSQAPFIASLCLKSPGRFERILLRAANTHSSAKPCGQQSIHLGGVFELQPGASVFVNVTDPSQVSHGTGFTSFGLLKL
Experimental: Cross-reactivity to cynomolgus CD40L (UniProt accession number: G7PG38) and rhesus CD40L (UniProt accession number: G7N4M5) was tested in a ligand competition assay. […] 2×10⁵ cells (transiently transfected HEK cells) were incubated with dilution series of the purified Nanobodies in FACS buffer for 30 minutes at 4° C. Cells were then washed 3× and finally resuspended in FACS buffer containing Streptavidin-PE (BD Pharmingen, #554061). This mixture was incubated for 30 minutes at 4° C. Cells were further handled as set out above.

recombinant human CD40L [5] = molecular target: T3, recombinant human CD40L; test: FACS ligand competition, biotinylated human CD40L on human CD40 HEK cells
recombinant human CD40L [6] = molecular target: T3, recombinant human CD40L; test: FACS ligand competition, biotinylated human CD40L on rhesus CD40 HEK cells
human TNFα = human TNFα (human, UniProt P01375 77-233); test: competition ELISA on coated human CD40L, fixed Nanobody, dilution series of competitor
From the text: (§1) The Basic Local Alignment Search Tool (BLAST) was used to identify the closest related protein in the human protein database. […] A fixed concentration of Nanobody was used together with a dilution series of competitor (TNFα, HVEM-L (TNF14) and hRANKL (TN F11); CD40L was used as positive control), starting at a 100-fold excess. The Nano bodies were detected with anti-FLAG-HRP (Sigma (A8592)).

HVEM-L (TNF14) = HVEM-L (TNF14) (human, UniProt O43557 74-240, limits assumed); test: as above
From the text: as §1

hRANKL (TNF11) = molecular target: T4, hRANKL (TNF11) (human, UniProt O14788 140-317, limits assumed); test: as above
T4 sequence (looked up): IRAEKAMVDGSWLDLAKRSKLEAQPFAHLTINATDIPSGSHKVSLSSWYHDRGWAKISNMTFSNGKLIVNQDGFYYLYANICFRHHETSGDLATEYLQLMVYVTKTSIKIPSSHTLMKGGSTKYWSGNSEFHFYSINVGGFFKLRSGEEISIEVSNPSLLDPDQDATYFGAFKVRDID
From the text: as §1

recombinant mouse CD40L = molecular target: T5, recombinant mouse CD40L (mouse, UniProt P27548 112-260, limits assumed); test: SPR (ProteOn), immobilised recombinant mouse CD40L 3000-4000 RU; member of the lead panel
T5 construct: also called mouse CD40L (R&D NSO)
T5 sequence (looked up): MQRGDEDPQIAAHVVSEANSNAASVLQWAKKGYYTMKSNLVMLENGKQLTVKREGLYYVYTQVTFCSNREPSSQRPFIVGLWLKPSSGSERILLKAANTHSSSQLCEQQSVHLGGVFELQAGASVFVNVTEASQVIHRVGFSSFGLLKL
Experimental: To assess binding to mouse CD40L (UniProt accession number: P27548), ProteOn GLC Sensor Chips were coated with 3000-4000 RU of recombinant mouse CD40L (R&D NSO) in 10 mM acetate buffer pH5.5. Purified monovalent anti-CD40L Nanobodies in ProteOn running buffer: PBS/Tween (phosphate buffered saline, pH 7.4 with 0.005% Tween 20) were flown over the sensor chips at 100 nM. Processed curves were used for off-rate analysis based on the Langmuir dissociation model.

recombinant human CD40L [7] = molecular target: T3, recombinant human CD40L; test: FACS ligand competition, biotinylated human CD40L on human CD40 HEK cells; * suboptimal curve fit

HVEM-L (TNF14), sequence (O43557 74-240 limits assumed): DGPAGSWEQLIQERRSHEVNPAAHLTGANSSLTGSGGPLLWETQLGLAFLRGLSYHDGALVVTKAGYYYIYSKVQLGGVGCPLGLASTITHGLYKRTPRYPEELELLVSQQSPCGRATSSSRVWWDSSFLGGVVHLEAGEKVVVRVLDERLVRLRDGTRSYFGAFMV
human TNFα, sequence (P01375 77-233 limits assumed): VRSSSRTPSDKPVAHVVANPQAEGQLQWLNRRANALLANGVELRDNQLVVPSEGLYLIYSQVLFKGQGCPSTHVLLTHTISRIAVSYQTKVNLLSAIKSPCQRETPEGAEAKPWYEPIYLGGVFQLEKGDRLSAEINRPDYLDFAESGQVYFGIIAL

IC50 (M), B-cell proliferation assay, +HSA [1]: 1.06e-09 M
Average IC50 (M), B-cell proliferation assay [2]: 1.26e-09 M
binding result [3]: no binding
% block (maximum observed effect) (recombinant human CD40L [4]): 81%
IC50 (recombinant human CD40L [4]): 8.07 nM
% block (maximum observed effect) (recombinant human CD40L [5]): 98%
% block (maximum observed effect) (recombinant human CD40L [6]): 87%
IC50 (recombinant human CD40L [6]): 12.4 nM
binding result (recombinant mouse CD40L): no binding (tested: 100 nM)
IC50 (recombinant human CD40L [7]): 0.142 nM
B1: C0100029C10 (VHH)
VHH: EVQLVESGGGLVQPGGSLRLSCAASGFTLDYYALGWFRQAPGKEREGVSCISSTESSDGSTYYADSVKGRFTISRDSAKNTVYLQMNSLKPEDTAVYYCATDQTLFGVCRGIATPDPGFWGQGTLVTVSS
notes: Monovalent Nanobody; tag of the monovalent form not spelled out; also called C01000029C10
binding result (human TNFα): no binding (tested: competitor from a 100-fold excess)
binding result (HVEM-L (TNF14)): no binding (tested: competitor from a 100-fold excess)
binding result (hRANKL (TNF11)): no binding (tested: competitor from a 100-fold excess)
